For two molecules, Kd results are on record in PMC10267580 (2023).

Substitutions are numbered along the chain they refer to. Names may count otherwise.

The target of assay [1] is Rab6B^Q72L, GTPase domain (residues 8-176), constitutively active mutant (mouse, UniProt P61294 8-176, Q72L). The assay is described as follows: ITC.
In assay [2] the target is Rab6B^Q72L L11E, GTPase domain (mouse, UniProt P61294 8-176, Q72L | L11E). The assay is described as follows: ITC. In general terms: Isothermal titration calorimetry measures the heat released or taken up as one component is titrated into another.
Chain of Rab6B^Q72L L11E, GTPase domain (P61294 8-176 L11E/Q72L): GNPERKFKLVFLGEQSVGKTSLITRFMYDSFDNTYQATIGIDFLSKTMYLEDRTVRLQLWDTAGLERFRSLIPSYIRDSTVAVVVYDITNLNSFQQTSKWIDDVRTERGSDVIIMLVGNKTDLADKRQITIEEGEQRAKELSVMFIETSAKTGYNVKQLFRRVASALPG

Chain of Rab6B^Q72L, GTPase domain (residues 8-176), constitutively active mutant (P61294 8-176 Q72L): as the sequence (P61294 8-176 L11E/Q72L) above, with E4L counted along it

B1: ELKS1_RBD S868A (domain or fragment)
chain: RKHLEEVLEMKQEALLAAIAEKDANIALLELSSSKKKTQEEVAALKREKDRLVQQLKQQTQNRMKLMADNYEDD
In assay [1], B1 returned a Kd of 26 µM. In other words, the double-digit micromolar range.

B2: ELKS1_RBD, Rab-binding domain of ELKS1 (residues 849-922) (domain or fragment)
chain: B1 chain with A20S
On to B2, for which, in assay [2], the Kd is more than 50 µM.

For orientation: Kd means the constant that tells how readily two partners part at equilibrium. High values mean weaker binding, low ones tighter binding.
